Measured values as given in US11020455B2, “Colony stimulating factor for use in pancreatic or colon cancer treatment” (ENDOR TECHNOLOGIES, S.L., priority 2015, dated 2021).

How the values were obtained:
melanoma = conditions: subcutaneous long-term therapy after surgical resection; cited from earlier work
prostate cancer = conditions: patients with prostate cancer; cited from earlier work
sarcoma = conditions: monotherapy; cited from earlier work
[1] = system: peripheral blood granulocytes; test: Peripheral blood granulocyte levels after single subcutaneous G-CSF injection in healthy C57BJL6 mice; assay type: in vivo, mouse
Experimental: (§1) Depiction of the peripheral blood granulocytes levels in healthy C57BJL6 and Athymic nu/nu mice after the subcutaneous injection of a single dose of G-CSF (10 μg/kg) in C57BJL6, and 10, 25, 50 and 100 μg/kg of G-CSF in Athymic nu/nu mice. Blood samples were taken at different time points and peripheral blood granulocytes levels are represented as a total number of granulocytes (GRA×10^9/L).
(§2) As peripheral blood is the only tissue routinely available from mice, the peripheral blood hemogram was also assessed in order to provide information about the behavior of blood cell populations after the subcutaneous injection of different G-CSF doses (Filgrastim—Amgen). […] Inventors especially focused their attention on the distribution of granulocytes in the peripheral blood which was determined at 1, 5 or 2, 6, 10 and 24 hrs after an initial dose of G-CSF subcutaneously. Peripheral blood granulocytes levels were analyzed in healthy (FIG. 7), and tumor-bearing mice (FIG. 8). […]

[2] = system: peripheral blood granulocytes; test: Peripheral blood granulocyte levels after single subcutaneous G-CSF injection in healthy athymic nu/nu mice; assay type: in vivo, mouse
Experimental: as §1
(§3) As peripheral blood is the only tissue routinely available from mice, the peripheral blood hemogram was also assessed in order to provide information about the behavior of blood cell populations after the subcutaneous injection of different G-CSF doses (Filgrastim—Amgen). The peripheral blood collected from the right femoral artery with a heparinized syringe in vacutainer blood collection tubes containing EDTA (Sarstedt Microvette® CB 300) were immediately subjected to differential blood cell counts (red blood cells (RBCs), white blood cells (WBCs), and blood platelets (PLTs)) and measurement of blood hemoglobin concentration using a blood cell differential automatic analyzer (ABACUS JUNIOR VET). The data for each experimental group were obtained from three to five mice. Inventors especially focused their attention on the distribution of granulocytes in the peripheral blood which was determined at 1, 5 or 2, 6, 10 and 24 hrs after an initial dose of G-CSF subcutaneously. Peripheral blood granulocytes levels were analyzed in healthy (FIG. 7), and tumor-bearing mice (FIG. 8). C57BJL6 healthy mice were injected with G-CSF 10 μg/kg and healthy athymic nu/nu mice were injected with different doses of G-CSF: 0, 10, 25, 50 and 100 μg/kg (FIG. 7). Athymic nu/nu mice bearing subcutaneous MiaPaca tumor were injected with G-CSF 10, 25, 50 and 100 μg/kg and blood was extracted at 1.5 hr (FIG. 8).

Panc-1 SC tumors = test: Antitumoral efficacy in Panc-1 SC tumor model (athymic nu/nu mice); assay type: in vivo, mouse; conditions: Panc-1, 10 μg/Kg SC daily, 48 days of treatment
Experimental: (§4) It is depicted the antitumoral efficacy of G-CSF in human pancreatic SC tumors. Athymic nu/nu mice bearing Panc-1 SC tumors were daily treated with subcutaneous G-CSF injection at a dose of 10 μg/Kg, while GE was injected intraperitoneal at a dose of 80 mg/Kg two times per week during the whole experiment. Total tumor volume (mm^3±SE) in saline (solid lines), G-CSF 10 μg/Kg (dashed lines) and GE 80 mg/kg (dotted) groups, for 48 days of treatment are represented.
(§5) Human pancreatic adenocarcinoma cell lines, Panc-1 and MiaPaca cells and the mouse pancreatic adenocarcinoma cells Panc02, were used for pancreatic cancer efficacy studies. Murine colorectal carcinoma cell line, Colon-26 cells, was used for colon cancer efficacy studies. […]
(§6) Mouse Models and Tumor Growth Studies Animal procedures met the guidelines of European Community Directive 86/609/EEC and were approved by the Local Ethical Committee. […] All animals were weighed and tumors were measured using manual caliper three times per week. SC tumor volumes were calculated according to the formula described by Attia and Weiss (Attia M A, et. al. “Immunology of spontaneous mammary carcinomas in mice. V. Acquired tumor resistance and enhancement in strain A mice infected with mammary tumor virus” Cancer Res. 1966, vol. 26, pp, 1787-1800), V (mm^3)=0.4×(larger diameter×smaller diameter^2). […]

MiaPaca SC tumors = test: Antitumoral efficacy in MiaPaca SC tumor model (athymic nu/nu mice); assay type: in vivo, mouse; conditions: 10 μg/Kg SC daily, 37 days after treatment
Experimental: as §4, with “MiaPaca” for “Panc-1”, “μg/kg,” for “μg/Kg,”, “μg/kg” for “μg/Kg”, “37” for “48”
as §5, §6

Panc02 SC tumors = test: Antitumoral efficacy in Panc02 SC tumor model (C57BJL6 mice); assay type: in vivo, mouse; conditions: Panc02, 100 μg/Kg SC daily, 20 days of treatment
Experimental: It is depicted the antitumoral efficacy of G-CSF in murine pancreatic SC tumors. C57BJL6 mice bearing Panc02 SC tumors were daily treated with subcutaneous G-CSF injection at a dose of 100 μg/kg. […]
as §5, §6

Colon-26 SC tumors [3] = test: Antitumoral efficacy in Colon-26 SC tumor model (Balb/C mice); assay type: in vivo, mouse; conditions: Colon-26, 10 μg/Kg SC daily, 18 days of treatment
Experimental: It is depicted the antitumoral efficacy of G-CSF in mouse colorectal SC tumors. BalbC mice bearing colorectal SC tumors were daily treated with subcutaneous G-CSF injection at a dose of 10 μg/kg. Total tumor volume (mm^3±SE) in saline (solid lines) and G-CSF10 μg/kg (dashed lines) groups, for 18 days of treatment are represented.
Depiction of the antitumoral efficacy of G-CSF in colorectal SC tumors. BalbC mice bearing Colon-26 SC tumors, with and without Sephadex papula, were treated daily with subcutaneous G-CSF injection at a dose of 50 ug/kg. […]
as §6
Antitumoral experiments were carried out on immunocompetent Balb/C tumor-bearing mice treated with Sephadex. […] There were 4 animals per group and their survival was monitored daily (FIG. 6). […]

Colon-26 SC tumors [4] = test: Effect of Sephadex on G-CSF antitumoral efficacy in Colon-26 model; assay type: in vivo, mouse; conditions: Colon-26 and Sephadex, 50 μg/Kg SC daily, 19 days
Experimental: Depiction of the antitumoral efficacy of G-CSF in colorectal SC tumors. BalbC mice bearing Colon-26 SC tumors, with and without Sephadex papula, were treated daily with subcutaneous G-CSF injection at a dose of 50 ug/kg. Total tumor volume (mm^3±SE) of saline (circle), G-CSF 50 μg/kg (square, abbreviated IT50), Sephadex-Saline (triangle), and Sephadex+G-CSF 50 μg/kg (cross, abbreviated IT-Sephadex.), for 19 days of treatment are represented.
Antitumoral experiments were carried out on immunocompetent Balb/C tumor-bearing mice treated with Sephadex. Sephadex treatments were initiated when SC Colon-26 tumors reached a tumor volume ranging from 90 to 110 mm^3 and 0.5 mL of Sephadex 16% (Sephadex G-150, Pharmacia Fine Chemicals, Sweden) was subcutaneously injected in the left side flank of mice. Control animals included were Saline and Sephadex groups. In this experiment, G-CSF group was treated at a dose of 50 μg/Kg (Filgrastim—Amgen). There were 4 animals per group and their survival was monitored daily (FIG. 6). In this model, Sephadex distracts functional granulocytes from the blood into the Sephadex papula thus abolishing G-CSF antitumoral activity. […]

[5] = system: tumor-infiltrating granulocytes; test: Tumor granulocytes (CD45+CD11b+Ly6G+) by flow cytometry in Colon-26 tumors; assay type: in vivo, mouse; conditions: 10 μg/Kg SC, day 5, flow cytometry
Experimental: Depiction of the tumor granulocyte levels, defined as a CD45+CD11b+Ly6G+ triple positive population, analyzed by flow cytometry from Colon-26 tumors treated with 10 μg/kg of G-CSF during 5 days. Granulocytes cells from tumor are represented as a % of positive cells±SE.
To evaluate the antitumoral capacity of G-CSF in murine colorectal carcinoma, immunocompetent Balb/C mice bearing Colon-26 tumors were treated when SC tumors reached a tumor volume ranging from 90 to 110 mm^3. For G-CSF therapy, Balb/C mice were randomly divided in Saline and G-CSF groups. G-CSF treatment (Filgrastim—Amgen) was applied subcutaneously every day during the whole experiment (FIG. 4). At day 5 of the experiments, 4 animals of each treatment were sacrificed and tumors were collected. Granulocytes (GRA) cells were detected by FACS, analyzing the markers of these cells: CD45+CD11b+Ly6G (FIG. 5). Details about each treatment are described in the present table: […]

[6] = system: peripheral blood granulocytes; test: Peripheral blood granulocyte levels in athymic nu/nu mice bearing MiaPaca SC tumors; assay type: in vivo, mouse; conditions: MiaPaca tumor-bearing nu/nu mice, first SC injection at 10, 25, 50 and 100 μg/kg, blood at 1.5 hr
Experimental: Depiction of peripheral blood granulocytes levels in Athymic nu/nu mice bearing MiaPaca SC tumors after the subcutaneous injection of G-CSF 10, 25, 50 and 100 μg/kg. Blood samples were taken at 1.5 hr and peripheral blood granulocytes levels are represented as a total number of granulocytes (GRA 10^9/L).
as §3, with “C57BJL6 healthy mice were injected with G-CSF 10 μg/kg and healthy athymic nu/nu mice were injected with different doses of G-CSF: 0, 10, 25, 50 and 100 μg/kg (FIG. 7). Athymic nu/nu mice bearing subcutaneous MiaPaca tumor were injected with G-CSF 10, 25, 50 and 100 μg/kg and blood was extracted at 1.5 hr (FIG. 8).” left out

[7] = system: neutrophils in peripheral blood; test: Peripheral blood neutrophil levels in Colon-26 mice with Sephadex; assay type: in vivo, mouse; conditions: Sephadex-treated Colon-26 mice
Experimental: Antitumoral experiments were carried out on immunocompetent Balb/C tumor-bearing mice treated with Sephadex. Sephadex treatments were initiated when SC Colon-26 tumors reached a tumor volume ranging from 90 to 110 mm^3 and 0.5 mL of Sephadex 16% (Sephadex G-150, Pharmacia Fine Chemicals, Sweden) was subcutaneously injected in the left side flank of mice. Control animals included were Saline and Sephadex groups. In this experiment, G-CSF group was treated at a dose of 50 μg/Kg (Filgrastim—Amgen). There were 4 animals per group and their survival was monitored daily (FIG. 6). In this model, Sephadex distracts functional granulocytes from the blood into the Sephadex papula thus abolishing G-CSF antitumoral activity.
as §2

In the case of “GM-CSF: Granulocyte Macrophage Colony Stimulating Factor, recombinant protein; only literature results cited”, the “therapeutic effect in melanoma patients” value (melanoma) is given as “therapeutic effect”, the “therapeutic benefit in prostate cancer patients” value (prostate cancer) is given as “therapeutic benefit” and the “therapeutic benefit in sarcoma” value (sarcoma) is given as “did not reveal a therapeutic benefit”.

B1: G-CSF: Granulocyte Colony Stimulating Factor, recombinant protein; Filgrastim (Amgen) used in the experiments (protein, UniProt P09919 31-207, looked up)
Granulocyte …: TPLGPASSLPQSFLLKCLEQVRKIQGDGAALQEKLVSECATYKLCHPEELVLLGHSLGIPWAPLSSCPSQALQLAGCLSQLHSGLFLYQGLLQALEGISPELGPTLDTLQLDVADFATTIWQQMEELGMAPALQPTQGAMPAFASAFQRRAGGVLVASHLQSFLEVSYRVLRHLAQP
modifications: N-terminal methionine (filgrastim)
notes: Granulocyte Colony Stimulating Factor, recombinant protein; Filgrastim (Amgen) used in the experiments
In the case of B1, the “increase of granulocyte levels compared to untreated animals” value (shortened to “increase of granulocyte levels”) ([1]; single SC dose 10 μg/Kg) is reported as 2.5 fold, the “time of maximum peripheral blood granulocyte levels post-G-CSF injection” value ([1]; single SC injection) is reported as 6 h and the “increase of granulocyte levels” value ([2]; single SC dose 10 μg/Kg) is reported as 2.5 fold. For the same molecule, the “increase of granulocyte levels” value ([2]; single SC dose 25 μg/Kg) was 3.5 fold, the “increase of granulocyte levels” value ([2]; single SC dose 50 μg/Kg) was 3.7 fold and the “increase of granulocyte levels” value ([2]; single SC dose 100 μg/Kg) was 3.5 fold. For the same molecule, the “time of maximum peripheral blood granulocyte levels post-G-CSF injection” value ([2]; single SC injection) was 6 h, the “tumor inhibition compared to saline” value (Panc-1 SC tumors) was “up to 90%” and the “tumor inhibition compared to saline” value (MiaPaca SC tumors) was “up to 55%”. The “tumor inhibition compared to saline” value (Panc02 SC tumors) was “around 50%”, the tumor inhibition (Colon-26 SC tumors [3]) was “up to 60%” and the tumor inhibition (Colon-26 SC tumors [4]) was 50%. The “tumor-infiltrating granulocytes (CD45+CD11b+Ly6G+ triple positive population)” value [5] was “significant increase”, the “peripheral blood granulocyte levels” value [6] was “increase in a dose response manner” and the “neutrophils levels in peripheral blood after G-CSF injection” value [7] was “smoothly recovered”.
